Non-standard residues stand in square brackets, D forms with d. Primed or numbered codes have the meaning given here. No end group written: not given here. PEG2′ = PEG2 tether (Merck, 20 atoms)
Legend:
[1] = target: bovine carbonic anhydrase II (bovine) (UniProt P00921); assay: dot blot, biotinylated peptide on spotted bCAII
[2] = target: bovine carbonic anhydrase II (bovine) (UniProt P00921); assay: dot blot, peptide with biotin at C-terminus on spotted bCAII
[3] = target: T1, bovine carbonic anhydrase II (bCAII) (Bos taurus, UniProt P00921); assay: Surface Plasmon Resonance (SPR) of peptide ligands on immobilized bCAII; format: binding; conditions: for response in SPR sensogram, in words: compared with other peptide ligands; for maximum response (Rmax): highest concentration (1.0 μM), bCAII immobilized to RU of 1000, FIG. 14; for interaction with bCAII: acetylated peptides, FIG. 9; for association-dissociation pattern in SPR sensogram: in words
T1 sequence (P00921 whole entry): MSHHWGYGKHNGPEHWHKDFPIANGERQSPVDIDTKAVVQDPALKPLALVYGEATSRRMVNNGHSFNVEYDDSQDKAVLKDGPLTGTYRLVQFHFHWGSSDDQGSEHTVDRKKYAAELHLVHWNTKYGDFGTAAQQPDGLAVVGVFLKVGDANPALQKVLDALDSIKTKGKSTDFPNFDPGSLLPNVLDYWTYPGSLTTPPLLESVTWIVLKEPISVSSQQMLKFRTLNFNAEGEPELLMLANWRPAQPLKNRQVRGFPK
From the text: Validation by SPR. The peptide ligands were investigated for their binding affinity towards bCAII using SPR as a validation tool. The target marker was immobilized onto CM5 sensor chip to a response unit (RU) of 1000 in a Biacore T100 system. Each peptide solution of a series of concentrations was eluted through the surface of the chip to observe the response as well as the dissociation pattern mediated by treatment of glycine-hydrochloride. As depicted in FIG. 14, the maximum responses (Rmax) by the peptide ligands increased in a stepwise fashion from the hexamer-2 to the decamers and then to the tetradecamer (8→40→140) at the highest concentration (1.0 μM).
Surface Plasmon Resonance (SPR) experiments to measure affinity of the re-synthesized peptide ligands. Affinity measurements were performed using a Biacore T100 system and research grade CM5 sensor chips (GE Heathcare). The instrument was primed with HBS-EP+ (GE Heathcare) buffer. Flow cell 1 (or 3) was used as a reference to subtract nonspecific binding, drift, and the bulk refractive index, while flow cell 2 (or 4) was immobilized with the target biomarker (bCAII) following standard procedures. A 1:1 mixture of 0.4 M EDC and 0.1 M NHS was used to activate flow cell 2 (or 4), and 0.1 mg/mL bCAII solution was injected. Blocking of the remaining activated groups was done with a 1 M solution of ethanolamine (pH 8.5). bCAII was immobilized onto the sensor chip surface by […] (RU). The instrument was then primed using running buffer (HBS-EP+). Each of the 6mer ligand candidates identified were dissolved in HBS-EP+buffer to produce 5 μM peptide stock solutions for each peptide, which were serially diluted by a factor of 2 to produce a concentration series down to 2 nM. For a given affinity measurement, these series of peptide solutions successively were injected into flow cell 2 (or 4) for […] of contact time, 5 min of dissociation time, and […] of stabilization time using a flow rate of 100 μL/min at 25° C. Flow cell 2 (or 4) was regenerated by glycine 2.5 (GE Healthcare) after injection of each peptide solution.

[4] = target: T1, bovine carbonic anhydrase II (bCAII); assay: Dot blot assay of biotin-conjugated peptide ligands on deposited bCAII; format: binding; conditions: for dot blot affinity/potency towards bCAII, in words: serial reduction of deposited bCAII, peptide 0.5 μM, compared with precursor
Procedure: Dot blot assays to measure affinity of the re-synthesized peptide ligands conjugated to biotin. […] A solution of bCAII was prepared as 10 mg/mL stocks in PBS buffer (pH 7.4). A serial dilution of the mother solution was applied to a nitrocellulose membrane, typically ranging from 2 μg to 5 ng per spot. The membrane was blocked at room temperature for 2 h in 5% nonfat milk/TBS-T. The membrane was then washed with TBS-T. […] After washing three times with TBS-T for 10 min, 1:3000 streptavidin-HRP (Abcam) prepared in 0.5% milk/TBS-T was added to the membrane and incubated for 2 h. After washing three times with TBS-T for 10 min, the membrane was treated with chemiluminescent reagents (Amersham ECL plus Western blotting detection reagents, GE Healthcare) and then immediately developed on film.

[5] = target: human carbonic anhydrase II (hCAII) (Homo sapiens, UniProt P00918); assay: Dot blot experiments of peptide ligands towards hCAII; format: binding; conditions: FIG. 9

Chain of bovine carbonic anhydrase II (bovine) (P00921 2-260 limits assumed): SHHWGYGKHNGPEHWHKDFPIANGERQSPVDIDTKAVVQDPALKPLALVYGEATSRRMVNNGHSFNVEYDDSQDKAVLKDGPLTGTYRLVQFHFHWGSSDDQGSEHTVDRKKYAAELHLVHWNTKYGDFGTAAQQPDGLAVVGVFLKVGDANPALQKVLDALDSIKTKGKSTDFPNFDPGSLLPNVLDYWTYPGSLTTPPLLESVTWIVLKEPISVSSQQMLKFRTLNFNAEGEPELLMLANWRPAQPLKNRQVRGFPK

decamer-3 (ryrr-ifvykr) (peptide)
lowest amount of deposited bCAII giving a developed spot [1]: 20 ng

decamer-4 (ifvykr-wryp) (peptide)
lowest amount of deposited bCAII giving a developed spot [2]: 20 ng

ifvykr ([dI][dF][dV][dY][dK][dR]) [hexamer-2]
response in SPR sensogram, in words [3]: even better property than hexamer-1
maximum response (Rmax) [3]: 8 RU
dot blot affinity/potency towards bCAII, in words [4]: even better property than hexamer-1

ifvykr-wryp ([dI][dF][dV][dY][dK][dR][dW][dR][dY][dP]) [decamer-4, 11]
dot blot affinity/potency towards bCAII, in words [4]: most prominent

kvtflhrywf (Ac-[dK][dV][dT][dF][dL][dH][dR][dY][dW][dF]-NH2) [decamer-N1, 8, D-amino acids, acetylated]
interaction with bCAII [3]: interacting with bCAII
response in SPR sensogram, in words [3]: higher response unit (RU)
association-dissociation pattern in SPR sensogram [3]: much more antibody-like behavior
dot blot affinity/potency towards bCAII, in words [4]: more potent
dot blot potency towards hCAII compared with bCAII [5]: similarly potent

lhrywf [hexamer-1]
interaction with bCAII [3]: interacting with bCAII
affinity (KD) in a Surface Plasmon Resonance (SPR) study ([3]; first-generation anchor peptide against bCAII): a few
dot blot potency towards hCAII compared with bCAII [5]: more potent

ryrr-ifvykr ([dR][dY][dR][dR][dI][dF][dV][dY][dK][dR]) [decamer-3, 10]
dot blot affinity/potency towards bCAII, in words [4]: most prominent

ryrr-ifvykr-wryp ([dR][dY][dR][dR][dI][dF][dV][dY][dK][dR][dW][dR][dY][dP]-{PEG2′-biotin}) [tetradecamer-N2C, 12]
maximum response (Rmax) [3]: 140 RU
association-dissociation pattern in SPR sensogram [3]: more antibody-like pattern
dot blot affinity compared with the two precursors decamer-N2 and decamer-C2 ([4]; peptide ligand 0.1 μM): not dramatically improved
dot blot potency compared with initial anchor hexamer-2 ([4]; peptide ligand 0.1 μM): far more potent

— US20120122711A1, “SCREENING OF BIOPOLYMERS” (priority 2009, published 2012)
